T1: ATF-2 (GST fusion) (UniProt P15336 P15336:144-505)
T1 sequence: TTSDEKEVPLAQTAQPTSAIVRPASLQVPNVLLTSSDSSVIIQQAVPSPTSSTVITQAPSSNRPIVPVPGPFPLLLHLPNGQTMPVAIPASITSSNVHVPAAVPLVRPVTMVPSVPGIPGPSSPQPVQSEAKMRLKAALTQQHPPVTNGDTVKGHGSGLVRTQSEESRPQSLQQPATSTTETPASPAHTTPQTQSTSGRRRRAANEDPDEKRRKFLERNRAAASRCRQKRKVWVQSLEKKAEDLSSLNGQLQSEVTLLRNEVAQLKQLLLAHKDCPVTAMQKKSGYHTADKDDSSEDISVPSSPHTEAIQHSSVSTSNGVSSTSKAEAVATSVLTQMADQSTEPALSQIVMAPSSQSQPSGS

T2: ATF-1 (GST fusion) (UniProt P18846 P18846:57-271)
T2 sequence: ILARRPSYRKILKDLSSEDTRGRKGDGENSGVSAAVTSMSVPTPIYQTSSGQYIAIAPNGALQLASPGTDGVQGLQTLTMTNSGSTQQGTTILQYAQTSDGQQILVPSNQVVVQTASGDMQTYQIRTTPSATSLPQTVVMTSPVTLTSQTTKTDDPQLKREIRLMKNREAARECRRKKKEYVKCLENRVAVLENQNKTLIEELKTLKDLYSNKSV

T3: BR-CC (GCN4 basic region with idealized leucine zipper) (Saccharomyces cerevisiae)
T3 chain: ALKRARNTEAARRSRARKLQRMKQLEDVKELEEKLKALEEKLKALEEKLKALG

B1: CRE core oligoduplex (dsDNA)
DNA 1: TCCTAAGTGACGTCAGTGGAA
DNA 2: TTCCACTGACGTCACTTAGGA
B2: collagenase TRE oligoduplex (dsDNA)
DNA 1: AGCTTTGACTCATCCCGGA
DNA 2: TCCGGGATGAGTCAAAGCT

How the values were obtained:
[1] = target: CREB (GST fusion) (UniProt P16220-1 P16220-1:23-341); experiment: EMSA; low binding without pX, greatly increased by 100 ng pX; conditions: tags: GST (pGEX-2T); chain copies: 2; label: 32P
Sequence of CREB (GST fusion) (P16220 other isoform, or with tags, fused parts or gaps): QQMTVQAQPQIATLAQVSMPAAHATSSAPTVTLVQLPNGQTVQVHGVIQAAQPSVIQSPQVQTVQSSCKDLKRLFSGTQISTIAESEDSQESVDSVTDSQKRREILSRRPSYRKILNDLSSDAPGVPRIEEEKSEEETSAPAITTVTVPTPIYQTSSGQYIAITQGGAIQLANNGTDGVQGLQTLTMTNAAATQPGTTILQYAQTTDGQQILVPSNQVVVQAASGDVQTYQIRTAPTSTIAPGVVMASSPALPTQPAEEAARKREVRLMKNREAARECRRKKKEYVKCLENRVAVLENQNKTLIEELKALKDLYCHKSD

[2] = target: pX (Hepatitis B virus, UniProt P03165 P03165:1-154); experiment: EMSA; no detectable interaction of pX with DNA without transcription factor; conditions: tags: His (pRSET-C); label: 32P
Sequence of pX (P03165 whole entry, the tested form may be a part, one chain of several): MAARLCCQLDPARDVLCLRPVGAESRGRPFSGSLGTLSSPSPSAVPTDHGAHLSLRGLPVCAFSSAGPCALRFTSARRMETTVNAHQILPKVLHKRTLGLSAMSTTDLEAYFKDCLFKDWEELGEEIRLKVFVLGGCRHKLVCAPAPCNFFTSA

[3] = target: T1, ATF-2 (GST fusion); experiment: EMSA; low binding without pX, greatly increased by pX; conditions: tags: GST (pGEX-2T); chain copies: 2; label: 32P
[4] = target: T2, ATF-1 (GST fusion); experiment: EMSA; low binding without pX, greatly increased by pX; TFIIB or E. coli extract no effect; conditions: tags: GST (pGEX-2T); chain copies: 2; label: 32P
[5] = target: T3, BR-CC (GCN4 basic region with idealized …); experiment: EMSA; stimulated by pX; conditions: protein: synthetic; tags: synthetic peptide; chain copies: 2; label: 32P
[6] = target: ZTA minimal bZIP (Epstein-Barr virus, UniProt P03206 P03206:175-229); experiment: EMSA; stimulated by pX; conditions: chain copies: 2; label: 32P
Sequence of ZTA minimal bZIP (P03206 175-229, one chain of several): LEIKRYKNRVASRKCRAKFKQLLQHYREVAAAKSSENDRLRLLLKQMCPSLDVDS

[7] = target: GCN4 minimal bZIP (Saccharomyces cerevisiae, UniProt P03069 P03069:228-281); experiment: EMSA; enhanced by pX; conditions: protein: synthetic; tags: synthetic peptide per text; chain copies: 2; label: 32P
Sequence of GCN4 minimal bZIP (P03069 228-281, one chain of several): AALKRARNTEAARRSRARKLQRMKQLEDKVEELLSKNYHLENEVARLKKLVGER

Binder | binding result [1] | binding result [2] | binding result [3] | binding result [4] | binding result [5] | binding result [6] | binding result [7]
B1 | binds | no binding | binds | binds | – | – | –
B2 | – | – | – | – | binds | binds | binds

From patent US6051373, “Methods for screening for inhibitors of the transcription-enhancing activity of the X protein of hepatitis B virus” (Scriptgen Pharmaceuticals, Inc.)
